Patent EP4725969A1 (Latticon (Suzhou) Biopharmaceuticals Co., Ltd., dated 2024)

Target: T1, recombinant human HER2 extracellular domain protein (human, UniProt P04626 23-652)
T1 construct: range 23-652; Range is printed for the immunogen/panning protein; also called ErbB2; recombinant HER2 protein
Assay: BLI, Protein A capture

Row | Binder | Kd | koff | kon
1 | 2126-Hu-H22 (antibody, IgG1, V domains shown, IgG1/Cκ) VH: QVQLVQSGGELKKPGASVKVSCKASGYTFTDYSMHWVRQAPGQGLEWMGWINTETGEPTYADDFKGRFVFSLDTSVSTAYLQISSLKAEDTAVYFCVRVGRYDYAMDYWGQGTTVTVSS VL: DIQMTQSPSSLSASVGDRVTITCKASQDVYTAVAWYQQKPGKAPKLLINSASYRYTGVPSRFSGSGSGTDFTLTISSLQPEDFATYYCQQHYSTPPTFGGGTKVEIK | 5.38 nM | 0.000543 s⁻¹ | 101000 M⁻¹ s⁻¹
2 | 2126-Hu-H23 (antibody, IgG1, V domains shown, IgG1/Cκ) VH: QVQLVQSGSELKKPGASLKVSCKASGYTFTDYSMHWVRQAPGQGLEWMGWINTETGEPTYADDFKGRFVFSLDTSVSTAYLQISSLKAEDTAVYFCVRVGRYDYAMDYWGQGTTVTVSS VL: DIQMTQSPSSLSASVGDRVTITCKASQDVYTAVAWYQQKPGKAPKLLINSASYRYTGVPSRFSGSGSGTDFTLTISSLQPEDFATYYCQQHYSTPPTFGGGTKVEIK | 5.9 nM | 0.000623 s⁻¹ | 106000 M⁻¹ s⁻¹
3 | 2126-Hu-H24 (antibody, IgG1, V domains shown, IgG1/Cκ) VH: QVQLVQSGSELKKPGASVKVSCKASGYTFTDYAMHWVRQAPGQGLEWMGWINTETGEPTYADDFKGRFVFSLDTSVSTAYLQISSLKAEDTAVYFCVRVGRYDYAMDYWGQGTTVTVSS VL: DIQMTQSPSSLSASVGDRVTITCKASQDVYTAVAWYQQKPGKAPKLLINSASYRYTGVPSRFSGSGSGTDFTLTISSLQPEDFATYYCQQHYSTPPTFGGGTKVEIK | 7.7 nM | 0.00083 s⁻¹ | 108000 M⁻¹ s⁻¹
4 | 2126-Hu-H25 (antibody, IgG1, V domains shown, IgG1/Cκ) VH: QVQLVQSGSELKKPGASVKVSCKASGYTFTDYSMHWVRQAPGQGLEWMGWINTNTGEPTYADDFKGRFVFSLDTSVSTAYLQISSLKAEDTAVYFCVRVGRYDYAMDYWGQGTTVTVSS VL: DIQMTQSPSSLSASVGDRVTITCKASQDVYTAVAWYQQKPGKAPKLLINSASYRYTGVPSRFSGSGSGTDFTLTISSLQPEDFATYYCQQHYSTPPTFGGGTKVEIK | 7.57 nM | 0.000749 s⁻¹ | 99000 M⁻¹ s⁻¹
5 | 2126-Hu-H26 (antibody, IgG1, name in Kabat numbering, V domains shown, IgG1/Cκ) VH: QVQLVQSGSELKKPGASVKVSCKASGYTFTDYSMHWVRQAPGQGLEWMGWINTDTGEPTYADDFKGRFVFSLDTSVSTAYLQISSLKAEDTAVYFCVRVGRYDYAMDYWGQGTTVTVSS VL: DIQMTQSPSSLSASVGDRVTITCKASQDVYTAVAWYQQKPGKAPKLLINSASYRYTGVPSRFSGSGSGTDFTLTISSLQPEDFATYYCQQHYSTPPTFGGGTKVEIK | 11.1 nM | 0.00119 s⁻¹ | 107000 M⁻¹ s⁻¹
6 | 2126-Hu-H27 (antibody, IgG1, V domains shown, IgG1/Cκ) VH: QVQLVQSGSELKKPGASVKVSCKASGYTFTDYSMHWVRQAPGQGLEWMGWINTGTGEPTYADDFKGRFVFSLDTSVSTAYLQISSLKAEDTAVYFCVRVGRYDYAMDYWGQGTTVTVSS VL: DIQMTQSPSSLSASVGDRVTITCKASQDVYTAVAWYQQKPGKAPKLLINSASYRYTGVPSRFSGSGSGTDFTLTISSLQPEDFATYYCQQHYSTPPTFGGGTKVEIK | 1.67 nM | 0.000164 s⁻¹ | 97900 M⁻¹ s⁻¹
7 | 2126-Hu-H28 (antibody, IgG1, V domains shown, IgG1/Cκ) VH: QVQLVQSGSELKKPGASVKVSCKASGYTFTDYSMHWVRQAPGQGLEWMGWINTYTGEPTYADDFKGRFVFSLDTSVSTAYLQISSLKAEDTAVYFCVRVGRYDYAMDYWGQGTTVTVSS VL: DIQMTQSPSSLSASVGDRVTITCKASQDVYTAVAWYQQKPGKAPKLLINSASYRYTGVPSRFSGSGSGTDFTLTISSLQPEDFATYYCQQHYSTPPTFGGGTKVEIK | 3.08 nM | 0.00035 s⁻¹ | 114000 M⁻¹ s⁻¹
8 | 2126-Hu-H29 (antibody, IgG1, V domains shown, IgG1/Cκ) VH: QVQLVQSGSELKKPGASVKVSCKASGYTFTDYSMHWVRQAPGQGLEWMGWINTITGEPTYADDFKGRFVFSLDTSVSTAYLQISSLKAEDTAVYFCVRVGRYDYAMDYWGQGTTVTVSS VL: DIQMTQSPSSLSASVGDRVTITCKASQDVYTAVAWYQQKPGKAPKLLINSASYRYTGVPSRFSGSGSGTDFTLTISSLQPEDFATYYCQQHYSTPPTFGGGTKVEIK | 2.61 nM | 0.000246 s⁻¹ | 94300 M⁻¹ s⁻¹
9 | 2126-Hu-H30 (antibody, IgG1, name in Kabat numbering, V domains shown, IgG1/Cκ) VH: QVQLVQSGSELKKPGASVKVSCKASGYTFTDYSMHWVRQAPGQGLEWMGWINTETGNPTYADDFKGRFVFSLDTSVSTAYLQISSLKAEDTAVYFCVRVGRYDYAMDYWGQGTTVTVSS VL: DIQMTQSPSSLSASVGDRVTITCKASQDVYTAVAWYQQKPGKAPKLLINSASYRYTGVPSRFSGSGSGTDFTLTISSLQPEDFATYYCQQHYSTPPTFGGGTKVEIK | 13.1 nM | 0.0015 s⁻¹ | 115000 M⁻¹ s⁻¹
10 | 2126-Hu-H31 (antibody, IgG1, V domains shown, IgG1/Cκ) VH: QVQLVQSGSELKKPGASVKVSCKASGYTFTDYSMHWVRQAPGQGLEWMGWINTETGDPTYADDFKGRFVFSLDTSVSTAYLQISSLKAEDTAVYFCVRVGRYDYAMDYWGQGTTVTVSS VL: DIQMTQSPSSLSASVGDRVTITCKASQDVYTAVAWYQQKPGKAPKLLINSASYRYTGVPSRFSGSGSGTDFTLTISSLQPEDFATYYCQQHYSTPPTFGGGTKVEIK | 8.81 nM | 0.000942 s⁻¹ | 107000 M⁻¹ s⁻¹
11 | 2126-Hu-H32 (antibody, IgG1, V domains shown, IgG1/Cκ) VH: QVQLVQSGSELKKPGASVKVSCKASGYTFTDYSMHWVRQAPGQGLEWMGWINTETGSPTYADDFKGRFVFSLDTSVSTAYLQISSLKAEDTAVYFCVRVGRYDYAMDYWGQGTTVTVSS VL: DIQMTQSPSSLSASVGDRVTITCKASQDVYTAVAWYQQKPGKAPKLLINSASYRYTGVPSRFSGSGSGTDFTLTISSLQPEDFATYYCQQHYSTPPTFGGGTKVEIK | 8.96 nM | 0.000998 s⁻¹ | 111000 M⁻¹ s⁻¹
12 | 2126-Hu-H33 (antibody, IgG1, V domains shown, IgG1/Cκ) VH: QVQLVQSGSELKKPGASVKVSCKASGYTFTDYSMHWVRQAPGQGLEWMGWINTETGEPTYADKFKGRFVFSLDTSVSTAYLQISSLKAEDTAVYFCVRVGRYDYAMDYWGQGTTVTVSS VL: DIQMTQSPSSLSASVGDRVTITCKASQDVYTAVAWYQQKPGKAPKLLINSASYRYTGVPSRFSGSGSGTDFTLTISSLQPEDFATYYCQQHYSTPPTFGGGTKVEIK | 2.83 nM | 0.00031 s⁻¹ | 109000 M⁻¹ s⁻¹
13 | 2126-Hu-H34 (antibody, IgG1, V domains shown, IgG1/Cκ) VH: QVQLVQSGSELKKPGASVKVSCKASGYTFTDYSMHWVRQAPGQGLEWMGWINTETGEPTYADNFKGRFVFSLDTSVSTAYLQISSLKAEDTAVYFCVRVGRYDYAMDYWGQGTTVTVSS VL: DIQMTQSPSSLSASVGDRVTITCKASQDVYTAVAWYQQKPGKAPKLLINSASYRYTGVPSRFSGSGSGTDFTLTISSLQPEDFATYYCQQHYSTPPTFGGGTKVEIK | 4.31 nM | 0.000454 s⁻¹ | 105000 M⁻¹ s⁻¹
14 | 2126-Hu-H35 (antibody, IgG1, V domains shown, IgG1/Cκ) VH: QVQLVQSGSELKKPGASVKVSCKASGYTFTDYSMHWVRQAPGQGLEWMGWINTETGEPTYADDVKGRFVFSLDTSVSTAYLQISSLKAEDTAVYFCVRVGRYDYAMDYWGQGTTVTVSS VL: DIQMTQSPSSLSASVGDRVTITCKASQDVYTAVAWYQQKPGKAPKLLINSASYRYTGVPSRFSGSGSGTDFTLTISSLQPEDFATYYCQQHYSTPPTFGGGTKVEIK | 5.87 nM | 0.000603 s⁻¹ | 103000 M⁻¹ s⁻¹
15 | 2126-Hu-H36 (antibody, IgG1, V domains shown, IgG1/Cκ) VH: QVQLVQSGSELKKPGASVKVSCKASGYTFTDYSMHWVRQAPGQGLEWMGWINTETGEPTYADDFKGRFTFSLDTSVSTAYLQISSLKAEDTAVYFCVRVGRYDYAMDYWGQGTTVTVSS VL: DIQMTQSPSSLSASVGDRVTITCKASQDVYTAVAWYQQKPGKAPKLLINSASYRYTGVPSRFSGSGSGTDFTLTISSLQPEDFATYYCQQHYSTPPTFGGGTKVEIK | 5.3 nM | 0.000558 s⁻¹ | 105000 M⁻¹ s⁻¹
16 | 2126-Hu-H37 (antibody, IgG1, V domains shown, IgG1/Cκ) VH: QVQLVQSGSELKKPGASVKVSCKASGYTFTDYSMHWVRQAPGQGLEWMGWINTETGEPTYADDFKGRFSFSLDTSVSTAYLQISSLKAEDTAVYFCVRVGRYDYAMDYWGQGTTVTVSS VL: DIQMTQSPSSLSASVGDRVTITCKASQDVYTAVAWYQQKPGKAPKLLINSASYRYTGVPSRFSGSGSGTDFTLTISSLQPEDFATYYCQQHYSTPPTFGGGTKVEIK | 5.31 nM | 0.000545 s⁻¹ | 103000 M⁻¹ s⁻¹
17 | 2126-Hu-H38 (antibody, IgG1, V domains shown, IgG1/Cκ) VH: QVQLVQSGSELKKPGASVKVSCKASGYTFTDYSMHWVRQAPGQGLEWMGWINTETGEPTYADDFKGRFVISLDTSVSTAYLQISSLKAEDTAVYFCVRVGRYDYAMDYWGQGTTVTVSS VL: DIQMTQSPSSLSASVGDRVTITCKASQDVYTAVAWYQQKPGKAPKLLINSASYRYTGVPSRFSGSGSGTDFTLTISSLQPEDFATYYCQQHYSTPPTFGGGTKVEIK | 8.4 nM | 0.000874 s⁻¹ | 104000 M⁻¹ s⁻¹
18 | 2126-Hu-H39 (antibody, IgG1, V domains shown, IgG1/Cκ) VH: QVQLVQSGSELKKPGASVKVSCKASGYTFTDYSMHWVRQAPGQGLEWMGWINTETGEPTYADDFKGRFVFSVDTSVSTAYLQISSLKAEDTAVYFCVRVGRYDYAMDYWGQGTTVTVSS VL: DIQMTQSPSSLSASVGDRVTITCKASQDVYTAVAWYQQKPGKAPKLLINSASYRYTGVPSRFSGSGSGTDFTLTISSLQPEDFATYYCQQHYSTPPTFGGGTKVEIK | 4.87 nM | 0.000509 s⁻¹ | 105000 M⁻¹ s⁻¹
19 | 2126-Hu-H40 (antibody, IgG1, V domains shown, IgG1/Cκ) VH: QVQLVQSGSELKKPGASVKVSCKASGYTFTDYSMHWVRQAPGQGLEWMGWINTETGEPTYADDFKGRFVFSRDTSVSTAYLQISSLKAEDTAVYFCVRVGRYDYAMDYWGQGTTVTVSS VL: DIQMTQSPSSLSASVGDRVTITCKASQDVYTAVAWYQQKPGKAPKLLINSASYRYTGVPSRFSGSGSGTDFTLTISSLQPEDFATYYCQQHYSTPPTFGGGTKVEIK | 1.92 nM | 0.0002 s⁻¹ | 104000 M⁻¹ s⁻¹
20 | 2126-Hu-H42 (antibody, IgG1, V domains shown, IgG1/Cκ) VH: QVQLVQSGSELKKPGASVKVSCKASGYTFTDYSMHWVRQAPGQGLEWMGWINTETGEPTYADDFKGRFVFSLDTSKSTAYLQISSLKAEDTAVYFCVRVGRYDYAMDYWGQGTTVTVSS VL: DIQMTQSPSSLSASVGDRVTITCKASQDVYTAVAWYQQKPGKAPKLLINSASYRYTGVPSRFSGSGSGTDFTLTISSLQPEDFATYYCQQHYSTPPTFGGGTKVEIK | 5.11 nM | 0.000546 s⁻¹ | 107000 M⁻¹ s⁻¹
